Consider 4 molecules from paper PMC6987120, “Structural insights into ATP hydrolysis by the MoxR ATPase RavA and the LdcI-RavA cage-like complex” (Communications Biology, 2020).

T1: LdcI (acid stress-inducible lysine decarboxylase) (E. coli, UniProt P0A9H3 1-715)
T1 construct: Inducible lysine decarboxylase LdcI of E. coli; 0.1 mM PLP in the BLI buffer; also called lysine decarboxylase LdcI; source: E. coli ppGpp-/- strain MG1655 ΔrelA ΔspoT, purified as previously described
T1 sequence: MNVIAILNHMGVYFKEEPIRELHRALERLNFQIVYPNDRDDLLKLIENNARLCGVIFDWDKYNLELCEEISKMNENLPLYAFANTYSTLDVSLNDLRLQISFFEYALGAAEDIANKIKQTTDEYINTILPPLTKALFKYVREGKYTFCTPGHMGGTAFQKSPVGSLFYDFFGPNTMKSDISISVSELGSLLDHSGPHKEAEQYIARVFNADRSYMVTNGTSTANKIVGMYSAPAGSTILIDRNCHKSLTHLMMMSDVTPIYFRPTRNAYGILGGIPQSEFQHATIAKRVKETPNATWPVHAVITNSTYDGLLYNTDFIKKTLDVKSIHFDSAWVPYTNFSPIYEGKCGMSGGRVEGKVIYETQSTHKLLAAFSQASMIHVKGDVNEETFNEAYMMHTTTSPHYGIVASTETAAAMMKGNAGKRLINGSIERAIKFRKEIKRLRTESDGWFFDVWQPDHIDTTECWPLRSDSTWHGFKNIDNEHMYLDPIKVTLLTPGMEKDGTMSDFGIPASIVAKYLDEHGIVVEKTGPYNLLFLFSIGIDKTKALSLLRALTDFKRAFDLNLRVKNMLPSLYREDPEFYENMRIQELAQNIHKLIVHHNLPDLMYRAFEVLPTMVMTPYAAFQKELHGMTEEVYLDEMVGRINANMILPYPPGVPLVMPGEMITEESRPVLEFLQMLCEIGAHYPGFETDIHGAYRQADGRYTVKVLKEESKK

B1: MoxR AAA+ ATPase RavA (enzyme)
chain: not shown
notes: RavA, MoxR family AAA+ ATPase of E. coli, encoded by the ravAviaA operon; cloned in the p11 vector (N-terminal cleavable HIS-tag); Hexamer (spiral or C2-symmetric closed ring) by cryo-EM with ADP; also called free RavA; RavA-ADP
B2: biotinylated RavA-AviTag (enzyme)
chain: not shown
modifications: biotin (biotinylated AviTag)
notes: MoxR AAA+ ATPase RavA of E. coli, cloned in the p11 vector (N-terminal cleavable HIS-tag) with a C-terminal AviTag added; The methods describe biotinylation during expression (D-biotin in the medium), the results say 'in vitro biotinylated'; source: E. coli BL-21 DE3 (100 μM D-biotin in the LB medium, overnight, 20 °C), purified to homogeneity; not shown: AviTag, C-terminal, kept
B3: acid stress-inducible lysine decarboxylase LdcI (enzyme, E. coli)
chain: T1 sequence
notes: LdcI, inducible lysine decarboxylase of E. coli; Decamer in the cryo-EM maps of the cage; Buffers held 0.1 mM PLP; source: ppGpp-/- E. coli strain (MG1655 ΔrelA ΔspoT), purified as previously described; copies: 10
B4: biotinylated RavA-AviTag (enzyme)
chain: not shown
modifications: biotin (biotinylated AviTag)
notes: RavA of E. coli cloned in the p11 vector (N-terminal cleavable HIS-tag) with a C-terminal AviTag added; Incubated with 1 mM ADP for 10 min before BLI; also called AviTag-containing RavA; source: E. coli BL-21 DE3 (100 μM D-biotin in the LB medium, overnight, 20 °C), purified to homogeneity; not shown: AviTag, C-terminal, kept

The target of data set [1] is B3. Kind of data set: cryo-EM structure; purified LdcI and RavA mixed at about 4.5:2 RavA:LdcI monomers; 20 mM Tris pH 7.9, 300 mM NaCl, 2 mM ADP, 10 mM MgCl2, 0.1 mM PLP, 1 mM DTT; room temperature; maps of Class 1 and Class 2 without symmetry imposed. Conditions: both partners purified.
Data set [2] concerns the molecule itself. The data set is described as above.
Data set [3] addresses T1, LdcI (acid stress-inducible lysine …). Kind of data set: BLI; biotinylated RavA-AviTag incubated with 1 mM ADP for 10 min, on streptavidin biosensors, quenched with biocytin; LdcI 500-31.25 nM in solution; pH 8.0 (1x TBS: 25 mM Tris, 300 mM NaCl, 10 mM MgCl2, 10% glycerol, with 1x kinetics buffer, 1 mM ADP, 1 mM DTT, 0.1 mM PLP); 293 K, Octet RED96; 1:1 interaction model. Conditions: both partners purified. Background: BLI is a label-free optical method that tracks binding on a fibre tip over time.

The target is the same in data set [4]. Kind of data set: BLI; biotinylated RavA-AviTag incubated with 1 mM ADP for 10 min, on streptavidin biosensors, quenched with biocytin; LdcI 500-31.25 nM in solution; pH 5.0 (1x MES pH 5, with 1x kinetics buffer, 1 mM ADP, 1 mM DTT, 0.1 mM PLP); 293 K, Octet RED96; 1:1 interaction model. The following applies: both partners purified.
Data set [5] shares this target. The experiment in a line: BLI; biotinylated RavA-AviTag incubated with 1 mM ADP for 10 min, on streptavidin biosensors, quenched with biocytin; LdcI 500-31.25 nM in solution; pH 6.5 (1x MES: 25 mM MES, 300 mM NaCl, 10 mM MgCl2, 10% glycerol, with 1x kinetics buffer, 1 mM ADP, 1 mM DTT, 0.1 mM PLP); 293 K, Octet RED96; 1:1 interaction model. The following applies: both partners purified.

Data set [6] shares this target. Kind of data set: BLI; biotinylated RavA-AviTag incubated with 1 mM ADP for 10 min, on streptavidin biosensors, quenched with biocytin; LdcI 500-31.25 nM in solution; pH 7.0 (1x HBS: 25 mM HEPES, 300 mM NaCl, 10 mM MgCl2, 10% glycerol, with 1x kinetics buffer, 1 mM ADP, 1 mM DTT, 0.1 mM PLP); 293 K, Octet RED96; 1:1 interaction model. Conditions: both partners purified.

For data set [7] the target is unchanged. The experiment in a line: BLI; biotinylated RavA-AviTag on streptavidin biosensors WITHOUT prior incubation with ADP, quenched with biocytin; LdcI 500-31.25 nM in solution; pH 7.0 (1x HBS: 25 mM HEPES, 300 mM NaCl, 10 mM MgCl2, 10% glycerol, with 1x kinetics buffer, 1 mM DTT, 0.1 mM PLP); 293 K, Octet RED96; 1:1 interaction model. Conditions: both partners purified.

In data set [8] the target is B3. The experiment in a line: BLI; biotinylated RavA-AviTag (pre-incubated with 1 mM ADP) immobilised on streptavidin biosensors; LdcI 500-31.25 nM in solution; Octet RED96, 293 K; pH 8 (Tris), 7 (HEPES), 6.5 and 5 (MES), 300 mM NaCl, 10 mM MgCl2, 10% glycerol, 0.1% BSA, 0.02% Tween-20, 1 mM ADP, 1 mM DTT, 0.1 mM PLP; 1:1 interaction model; averages over the four pH values. The following applies: both partners purified.

“And” between values parts separate entries of the source, which are not always exact repeats. Identical values can stand only once.

One may read the stoichiometry N as the number of molecules, sites or subunits per partner or assembly. With B1, the binding result in data set [1] is “binds”. Besides, the “stoichiometry N” value in data set [2] amounted to 6.

The Kd is the free concentration of one partner at which half of the binding sites on the other are occupied at equilibrium, for simple one-to-one binding. Read a high Kd as lower affinity. By koff is commonly meant the rate constant with which the complex falls apart. Read a high koff as fast dissociation. A word on the kon: it is the rate constant with which the complex forms. High values mean faster complex formation, low ones slower complex formation. For B2, the Kd came out at 44.2 nM in data set [3]; 27.1 nM in data set [4]; 20.9 nM in data set [5]; 26.7 nM in data set [6]; 46.3 nM in data set [7]. For the same molecule, the koff in data set [3] is 0.00131 s⁻¹; in data set [4], 0.00074 s⁻¹; in data set [5], 0.000538 s⁻¹; in data set [6], 0.000659 s⁻¹; in data set [7], 0.000987 s⁻¹. Moreover, the kon in data set [3] amounted to 29600 M⁻¹ s⁻¹; in data set [4] it was 27300 M⁻¹ s⁻¹; in data set [5] it was 25700 M⁻¹ s⁻¹; in data set [6], 24700 M⁻¹ s⁻¹; in data set [7], 21300 M⁻¹ s⁻¹.

On to B3, for which the “stoichiometry N” value in data set [2] was found to be 10.

For B4, in data set [8], the Kd was 20 nM to 40 nM (2×) and 29.7 nM; the koff was found to be 0.000811 s⁻¹; the kon came out at 26800 M⁻¹ s⁻¹.
